The values that follow come from PMC10990141.

The assay concerns the target F-actin from rabbit skeletal muscle G-actin (rabbit) (UniProt P68135). Put plainly: cryoEM images and 2D image averages; 0.83 uM full-length myosin-5a, 3.6 uM calmodulin, 2.1 uM F-actin, 0.20 mM ATP, 95 mM KCl, 48 uM MgCl2, 0.12 mM EGTA, 10 mM MOPS pH 7.0, 22 °C; applied within 10 s to a lacey carbon grid and flash frozen.

For “full-length mouse myosin-5a, melanocyte-specific isoform, with calmodulin (from UniProt P0DP23 1-149) (complex)”, the percent of the added myosin attached to actin was < 10%.
